Values quoted from earlier work in PMC3968163.

Biological target: p53 TAD (Homo sapiens) (UniProt P04637)
Assay: ITC

Chain of p53 TAD (Homo sapiens) (P04637 20-73): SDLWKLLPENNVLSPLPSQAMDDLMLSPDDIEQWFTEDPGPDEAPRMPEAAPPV
Chain of Tfb1 PH (P32776 1-115): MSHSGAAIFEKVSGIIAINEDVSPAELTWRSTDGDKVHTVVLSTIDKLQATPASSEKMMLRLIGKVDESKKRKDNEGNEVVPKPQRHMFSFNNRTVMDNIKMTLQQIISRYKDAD

- Kd: 0.4 µM
Substance: Tfb1 PH (from UniProt P32776)
